From doi:10.1101/2024.08.28.609967 (bioRxiv, 2024)
Each block holds one binder with its values, some of them ahead of it.

B1: GFP-FIP200 C-terminal region (CTR) (residues 1429–1591) (domain or fragment, UniProt Q8TDY2-2 1429-1591, looked up)
chain: ADEGRVDSAMETSMMSVQENIHMLSEEKQRIMLLERTLQLKEEENKRLNQRLMSQSMSSVSSRHSEKIAIRDFQVGDLVLIILDERHDNYVLFTVSPTLYFLHSESLPALDLKPASGASRRPWVLGKVMEKEYCQAKKAQNRFKVPLGTKFYRVKAVSWNKKV
notes: FIP200 (RB1CC1), C-terminal region with the Claw domain and a portion of the coiled-coil, residues 1429-1591; also called GFP-tagged FIP200-CTR; GFP-FIP200(CTR); source: E. coli Rosetta pLysS, purified (His-Trap, TEV cleavage, SEC); not shown: His6, N-terminal, cleaved; GFP, N-terminal, kept

Assays:
Conditions in all cases: both partners purified
GST-TEX264 (28–313aa) = biological target: T1, GST-TEX264 (28–313aa) (human, UniProt Q9Y6I9 28-313); test: microscopy-based bead assay; glutathione beads coated with GST-tagged cargo receptors (5 uM), GFP-FIP200 CTR (1429-1591) as prey, 30 min; 25 mM Tris-HCl pH 7.4, 150 mM NaCl, 1 mM DTT; confocal imaging
T1 construct: TEX264, cytosol-exposed domain, residues 28-313, synthetic gene; also called GST-tagged TEX264; source: E. coli Rosetta pLysS, purified (glutathione beads, SEC); not shown: GST, N-terminal, kept
T1 sequence (looked up): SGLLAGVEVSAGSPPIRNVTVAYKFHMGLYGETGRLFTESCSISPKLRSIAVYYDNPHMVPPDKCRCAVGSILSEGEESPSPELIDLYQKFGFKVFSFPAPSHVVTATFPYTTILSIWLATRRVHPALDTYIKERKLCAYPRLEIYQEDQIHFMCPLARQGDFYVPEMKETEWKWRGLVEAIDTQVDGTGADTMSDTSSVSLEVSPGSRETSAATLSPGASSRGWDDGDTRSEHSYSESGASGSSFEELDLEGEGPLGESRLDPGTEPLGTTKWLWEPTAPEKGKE

CCPG1-GST (1–212aa) = biological target: T2, CCPG1-GST (1–212aa) (human, UniProt Q9ULG6 1-212); test: as above
T2 construct: CCPG1, cytosol-exposed domain, residues 1-212, synthetic gene; also called GST-tagged CCPG1; source: E. coli Rosetta pLysS, purified (glutathione beads, SEC); not shown: GST, C-terminal, kept
T2 sequence (looked up): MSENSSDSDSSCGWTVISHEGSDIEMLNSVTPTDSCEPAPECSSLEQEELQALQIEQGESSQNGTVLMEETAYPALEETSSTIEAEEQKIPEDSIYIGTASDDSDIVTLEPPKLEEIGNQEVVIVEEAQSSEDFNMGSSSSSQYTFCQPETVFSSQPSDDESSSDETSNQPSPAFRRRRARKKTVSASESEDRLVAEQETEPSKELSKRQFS

BCL2L13(1–465aa)-GST = biological target: T3, BCL2L13(1–465aa)-GST (human, UniProt Q9BXK5 1-465); test: as above
T3 construct: BCL2L13, cytosol-exposed domain, residues 1-465; also called BCL2L13-GST; source: E. coli Rosetta pLysS, purified (glutathione beads, SEC); not shown: GST, C-terminal, kept

FKBP8-GST (1–391aa) = biological target: T4, FKBP8-GST (1–391aa) (human, UniProt Q14318 1-391); test: as above
T4 construct: FKBP8, cytosol-exposed domain, residues 1-391, synthetic gene; also called GST-tagged FKBP8; source: E. coli Rosetta pLysS, purified (glutathione beads, SEC); not shown: GST, C-terminal, kept

GST-FAM134C (250–466aa) = biological target: T5, GST-FAM134C (250–466aa) (human, UniProt Q86VR2 250-466); test: as above
T5 construct: FAM134C, cytosol-exposed domain, residues 250-466, synthetic gene; also called GST-tagged FAM134C; source: E. coli Rosetta pLysS, purified (glutathione beads, SEC); not shown: GST, N-terminal, kept

[1] = biological target: B1; test: microscopy-based bead assay; as a2 (GFP-FIP200 CTR prey) with kinases TBK1, MBP-ULK1, CK2 or Src (Y530F) and 10 mM MgCl2, 100 uM ATP
GST-WIPI3 = biological target: T6, GST-WIPI3 (UniProt Q5MNZ6 1-344); test: microscopy-based bead assay; glutathione beads coated with GST-tagged WIPI2d or WIPI3 (5 uM), mCherry-tagged ATG13 constructs as prey; 25 mM Tris-HCl pH 7.4, 150 mM NaCl, 1 mM DTT; confocal imaging
T6 construct: WIPI3 (WDR45B); Addgene numbers are tied to WIPI1/2/3/4 by their order in the list; also called GST-tagged WIPI3; GST-TEV-WIPI3; source: FreeStyle HEK293F cells, transfected, purified (glutathione beads, SEC); not shown: GST, N-terminal, kept

mCherry-WIPI3 = biological target: T7, mCherry-WIPI3 (UniProt Q5MNZ6 1-344); test: microscopy-based bead assay; GFP-trap agarose beads coated with GFP-tagged bait (ULK1 complex, ATG13/101, FIP200, ULK1 K46I, ATG13 IDR and its fragments or variants; 5 uM), mCherry-tagged WIPI proteins as prey; 25 mM Tris-HCl pH 7.4, 150 mM NaCl, 1 mM DTT; confocal imaging
T7 construct: also called mCherry-tagged WIPI3; source: E. coli Rosetta pLysS, purified (His-Trap, SEC); not shown: mCherry, N-terminal, kept
T7 sequence (Q5MNZ6 whole entry, the tested form may be a part): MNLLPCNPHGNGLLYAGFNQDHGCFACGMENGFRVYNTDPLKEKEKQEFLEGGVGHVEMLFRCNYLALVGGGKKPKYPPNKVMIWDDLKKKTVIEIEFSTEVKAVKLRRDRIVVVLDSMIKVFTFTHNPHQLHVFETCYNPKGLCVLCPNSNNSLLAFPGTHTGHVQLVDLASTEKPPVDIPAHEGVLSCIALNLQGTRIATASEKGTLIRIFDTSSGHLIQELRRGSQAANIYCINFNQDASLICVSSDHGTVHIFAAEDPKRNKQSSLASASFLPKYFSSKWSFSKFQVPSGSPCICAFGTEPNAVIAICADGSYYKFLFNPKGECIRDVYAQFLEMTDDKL

T3 sequence (Q9BXK5 1-465): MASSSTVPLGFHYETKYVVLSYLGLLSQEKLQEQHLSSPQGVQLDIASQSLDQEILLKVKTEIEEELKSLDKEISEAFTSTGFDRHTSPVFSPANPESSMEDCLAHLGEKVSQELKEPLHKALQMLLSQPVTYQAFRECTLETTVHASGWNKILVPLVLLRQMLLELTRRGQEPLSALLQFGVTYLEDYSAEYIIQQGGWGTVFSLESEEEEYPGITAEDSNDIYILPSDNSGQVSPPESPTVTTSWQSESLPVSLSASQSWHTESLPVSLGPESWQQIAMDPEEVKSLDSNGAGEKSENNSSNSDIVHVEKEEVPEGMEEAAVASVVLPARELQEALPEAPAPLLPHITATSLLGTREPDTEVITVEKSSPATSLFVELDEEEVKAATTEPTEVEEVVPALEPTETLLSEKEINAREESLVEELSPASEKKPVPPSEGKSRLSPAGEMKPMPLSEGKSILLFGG
T5 sequence (Q86VR2 250-466): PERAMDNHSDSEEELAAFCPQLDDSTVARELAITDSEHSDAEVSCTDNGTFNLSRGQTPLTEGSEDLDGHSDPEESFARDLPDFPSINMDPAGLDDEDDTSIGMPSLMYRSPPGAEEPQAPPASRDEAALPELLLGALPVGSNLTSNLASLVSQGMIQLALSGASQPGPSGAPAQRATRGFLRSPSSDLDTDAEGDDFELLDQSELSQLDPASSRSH
T6 sequence (Q5MNZ6 whole entry): as the sequence (Q5MNZ6 whole entry, the tested form may be a part) above
T4 sequence (Q14318 1-391): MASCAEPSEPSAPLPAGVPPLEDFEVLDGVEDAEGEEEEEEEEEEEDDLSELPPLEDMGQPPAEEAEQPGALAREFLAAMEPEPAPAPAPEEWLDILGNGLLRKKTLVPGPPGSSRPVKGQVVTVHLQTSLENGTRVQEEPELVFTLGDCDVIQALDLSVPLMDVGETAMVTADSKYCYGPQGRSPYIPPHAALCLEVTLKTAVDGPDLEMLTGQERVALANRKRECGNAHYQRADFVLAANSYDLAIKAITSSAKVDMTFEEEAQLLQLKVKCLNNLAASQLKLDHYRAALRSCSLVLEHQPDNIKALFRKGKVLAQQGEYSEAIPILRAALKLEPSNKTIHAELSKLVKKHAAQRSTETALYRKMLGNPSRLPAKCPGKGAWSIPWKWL

Binder: B1
binding result (GST-TEX264 (28–313aa)): binds
binding result (CCPG1-GST (1–212aa)): binds
binding result (BCL2L13(1–465aa)-GST): binds
binding result (FKBP8-GST (1–391aa)): binds
binding result (GST-FAM134C (250–466aa)): binds

B2: FUNDC1(1–50aa)-GST (domain or fragment, human, UniProt Q8IVP5 1-50, looked up)
chain: MATRNPPPQDYESDDDSYEVLDLTEYARRHQWWNRVFGHSSGPMVEKYSV
notes: FUNDC1, cytosol-exposed domain, residues 1-50; also called FUNDC1-GST; source: E. coli Rosetta pLysS, purified (glutathione beads, SEC); not shown: GST, C-terminal, kept
binding result [1]: binds

B3: mCherry-tagged ATG13 IDR (191–517aa) (domain or fragment, UniProt O75143 191-517, looked up)
chain: INLAFMSTRQFERTPPIMGIIIDHFVDRPYPSSSPMHPCNYRTAGEDTGVIYPSVEDSQEVCTTSFSTSPPSQLSSSRLSYQPAALGVGSADLAYPVVFAAGLNATHPHQLMVPGKEGGVPLAPNQPVHGTQADQERLATCTPSDRTHCAATPSSSEDTETVSNSSEGRASPHDVLETIFVRKVGAFVNKPINQVTLTSLDIPFAMFAPKNLELEDTDPMVNPPDSPETESPLQGSLHSDGSSGGSSGNTHDDFVMIDFKPAFSKDDILPMDLGTFYREFQNPPQLSSLSIDIGAQSMAEDLDSLPEKLAVHEKNVREFDAFVETLQ
notes: also called mCh-IDR; source: E. coli Rosetta pLysS, purified (His-Trap, SEC); not shown: mCherry, N-terminal, kept
binding result (GST-WIPI3): binds

B4: GFP-tagged ATG13 IDR (191–517aa) (domain or fragment, UniProt O75143 191-517, looked up)
chain: INLAFMSTRQFERTPPIMGIIIDHFVDRPYPSSSPMHPCNYRTAGEDTGVIYPSVEDSQEVCTTSFSTSPPSQLSSSRLSYQPAALGVGSADLAYPVVFAAGLNATHPHQLMVPGKEGGVPLAPNQPVHGTQADQERLATCTPSDRTHCAATPSSSEDTETVSNSSEGRASPHDVLETIFVRKVGAFVNKPINQVTLTSLDIPFAMFAPKNLELEDTDPMVNPPDSPETESPLQGSLHSDGSSGGSSGNTHDDFVMIDFKPAFSKDDILPMDLGTFYREFQNPPQLSSLSIDIGAQSMAEDLDSLPEKLAVHEKNVREFDAFVETLQ
notes: Addgene numbers of the GFP-ATG13 constructs are tied to the ranges by their order in the list; also called ATG13 IDR wild-type (WT); source: E. coli Rosetta pLysS, purified (glutathione beads, TEV cleavage, SEC); not shown: GST, N-terminal, cleaved; EGFP, N-terminal, kept
binding result (mCherry-WIPI3): binds

Other lines, results leading:

binding result (mCherry-WIPI3): binds
B5: GFP-tagged ATG13 (191–230aa) (peptide, UniProt O75143 191-230, looked up)
chain: INLAFMSTRQFERTPPIMGIIIDHFVDRPYPSSSPMHPCN
notes: source: E. coli Rosetta pLysS, purified (glutathione beads, TEV cleavage, SEC on S75); not shown: GST, N-terminal, cleaved; EGFP, N-terminal, kept

binding result (mCherry-WIPI3): binds
B6: GFP-tagged ATG13 (206–230) (peptide, UniProt O75143 206-230, looked up)
chain: PIMGIIIDHFVDRPYPSSSPMHPCN
notes: ATG13 residues 206-230; also called ATG13 IDR fragment (206–230aa); source: E. coli Rosetta pLysS, purified (glutathione beads, TEV cleavage, SEC on S75); not shown: GST, N-terminal, cleaved; EGFP, N-terminal, kept

binding result (mCherry-WIPI3): binds
B7: GFP-tagged ATG13 IDR (Δ191–205aa) (domain or fragment, UniProt O75143 205-517, looked up)
chain: PPIMGIIIDHFVDRPYPSSSPMHPCNYRTAGEDTGVIYPSVEDSQEVCTTSFSTSPPSQLSSSRLSYQPAALGVGSADLAYPVVFAAGLNATHPHQLMVPGKEGGVPLAPNQPVHGTQADQERLATCTPSDRTHCAATPSSSEDTETVSNSSEGRASPHDVLETIFVRKVGAFVNKPINQVTLTSLDIPFAMFAPKNLELEDTDPMVNPPDSPETESPLQGSLHSDGSSGGSSGNTHDDFVMIDFKPAFSKDDILPMDLGTFYREFQNPPQLSSLSIDIGAQSMAEDLDSLPEKLAVHEKNVREFDAFVETLQ
notes: source: E. coli Rosetta pLysS, purified (glutathione beads, TEV cleavage, SEC); not shown: GST, N-terminal, cleaved; EGFP, N-terminal, kept
